B1: PPFIA4 (parent)
chain: VMTLPSDLRKHRRKLLSPVSREEN
B2: C10orf62 (parent)
chain: MLWVQRKRRRKETSECPSDKDKSP

Variants of: B1
Experiment: protein stability index of a GFP-peptide fusion (GPS, HEK-293T) (PSI 1-6); higher = more stable
Conditions: c terminus: a fixed tail appended
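Note: lentivirally expressed fusions sorted by FACS into six bins by GFP to DsRed ratio, PSI derived from sequencing read proportions per bin multiplied by bin number.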

Protein stability index, by site and new letter:
R21: K 4.44; A 4.18; Y 3.34
L4: H 4.08
M2: K 3.82; N 3.84; L 3.48
V19: C 3.17; H 4.11
E22: A 3.12; C 2.8; F 2.44
S17: N 3.88
P18: F 2.83; M 3.83
R13: E 4.59; F 2.89
R9: M 3.53; K 4; I 3.69
S20: T 3.75
H11: Q 2.93
V1: W 2.66; Q 4.35; C 3.81
R12: I 3.51; E 4.58
K14: V 3.13
K10: Y 2.76
L8: F 3.59; A 3.43
T3: E 3.51; I 2.65
P5: S 3.08
L16: R 3.99; Y 3.85; T 4.31; H 3.89

Variants of: B2
Experiment: as above
Conditions: c terminus: a fixed tail appended

Protein stability index, by site and new letter:
P17: T 3.08; A 4.1; Y 2.27; L 2.98; F 2.51; N 3.23; D 2.6; R 2.52; W 2.86; M 3.44; E 2.41; Q 3.36; C 2.74; S 2.92; H 2.81; I 2.96
R9: E 3.71; M 3.63; N 3.18; V 3.18; T 3.49; Q 3.2; I 3.4; H 3.32; Y 3.75; C 2.81; K 2.73; G 3.2; A 3.71; P 2.26; F 3.64; D 3.62; L 3.08
T13: E 2.99; W 2.75; P 3.04; G 2.15; I 2.52; S 2.25; H 3.39; V 4.26; R 3.48; Y 2.07; C 2.42; Q 2.58; L 3.4; D 2.3; K 3.55
D19: C 2.76; E 2.46; N 2.92; V 2.63; W 1.65; P 2.61; A 2.77; L 1.98; S 2.37; Y 2.99; I 2.84; H 2.77; F 2.57; Q 2.65; M 3.44
K20: H 2.97; M 3.38; F 2.12; Y 3.92; V 3.27; P 3.19; N 4.29; R 2.81; L 3.01; G 3.29; T 3.35; C 3.52; A 2.74; S 2.73; Q 2.46; I 3.7; D 4.06
K22: T 3.48; Y 3.12; M 3.06; G 2.97; P 3.58; N 3.47; S 3.18; E 2.83; F 2.66; C 2.32; I 2.61; V 3.63; A 4.4; D 2.48; L 3.2
C16: F 2.29; P 2.16; H 3.11; V 2.81; S 4.01; Y 3.1; M 3.84; R 3.35; L 2.53; K 3.41; I 2.95; E 3.25; G 2.43; N 3.16; W 2.16; Q 3.75
K11: E 3.06; T 2.73; I 2.9; Q 3.44; Y 2.31; D 3.46; P 3.34; W 2.45; M 2.71; H 2.72; N 3.11; C 2.46; R 3.39; L 3.55; F 2.73; G 2.9; A 4.09
D21: K 4.07; P 2.62; Y 2.32; M 2.5; A 2.64; F 2.4; G 3.36; Q 2.87; R 1.92; I 2.32; N 3.44; L 2.29; H 2.28; E 3.44
K7: S 3.85; C 2.31; Q 3.74; M 3.06; I 1.95; R 3.29; G 3.23; V 2.69; L 1.73; P 3.97; F 2.73; Y 1.57; N 3.9; D 3.97; A 3.08; H 3.69; W 2.49; T 3.15
E15: P 2.99; I 1.92; T 2.95; V 3.29; S 2.96; K 2.74; L 2.84; H 2.92; M 2.24; Q 3.56; Y 2.76; F 3; R 2.54; A 3.71; D 3.26; C 3; W 2.15; N 3.52
R8: D 3.52; Q 4.1; C 3.34; G 4.16; S 3.91; Y 3.19; F 3.05; A 3.9; K 3.15; E 5.08; M 3.74; L 2.51; H 3.89; I 3.36; T 2.95; N 3.78
E12: T 2.92; M 2.67; Q 3.37; Y 2.68; V 2.93; L 3.02; C 2.7; A 3.13; H 3.16; K 3.44; P 3.67; I 2.39; S 3.45; W 2.5; R 3.7; G 2.49; N 2.67; F 2.5; D 2.39
S18: H 2.85; N 2.83; A 3.23; Y 2.43; V 2.9; M 2.94; W 2.63; R 3.21; T 2.75; C 2.77; K 2.77; I 2.41; Q 3.42; E 2.88; G 3.58; D 3.07
S14: H 2.71; M 3.31; F 3.12; I 2.74; Y 2.44; D 3.12; V 3.14; R 2.55; W 2.94; T 2.55; N 3.14; E 3.2; G 3.1; A 3.82
S23: Y 2.69; N 3.29; R 2.88; M 3.39; E 2.48; A 3.2; L 3.38; I 2.4; D 3.49; T 3.05; G 3.25; V 3.58; H 2.77; P 2.88; F 2.5; W 1.92; C 3.15; Q 3.42; K 2.27
R10: A 3.85; Y 2.78; P 4.27; M 3.13; H 3.45; D 4.11; E 3.86; T 3.79; F 2.33; K 3.41; L 2.78; S 3.21; N 3.78; C 2.51; W 2.89; Q 3.12
P24: D 3.28; I 2.35; F 2.46; M 2.46; H 3.31; G 3.59; Y 2.57; A 3.72; K 2.16; T 2.98; Q 3.54; R 3.31; L 2.37; V 2.95; C 3.2; N 2.8; S 3.11; W 3.58
